Experimental data from the Human Domainome abundance scans (Beltran et al. 2025).
± gives the uncertainty stated by the source.

B1: Receptor-interacting serine/threonine-protein kinase 2, residues 438 to 518; numbered along this chain, O43353 (parent)
chain: QWIQSKREDIVNQMTEACLNQSLDALLSRDLIMKEDYELVSTKPTRTSKVRQLLDTTDIQGEEFAKVIVQKLKDNKQMGLQ

Variants of: B1
Test: abundance fitness (aPCA) (normalised: wild type 0, dead -1); higher = more abundant; growth selection in yeast, the domain comes from the species named
Settings: Homo sapiens

Abundance fitness, by site and new letter:
D36: P -0.459 ± 0.065, T -0.244 ± 0.11, G -0.551 ± 0.1, A -0.267 ± 0.11, E -0.147 ± 0.11, V -0.587 ± 0.24, K -0.545 ± 0.14, W -1.04 ± 0.16, Q 0.121 ± 0.084, S -0.551 ± 0.077, C -0.839 ± 0.23, R -0.718 ± 0.074, M -0.711 ± 0.22, H -0.194 ± 0.14, N -0.678 ± 0.37, L -0.791 ± 0.11, Y -0.608 ± 0.28
K34: S -0.23 ± 0.065, W -0.243 ± 0.092, R -0.124 ± 0.063, T -0.515 ± 0.22, A -0.094 ± 0.078, F -0.191 ± 0.17, P 0.024 ± 0.066, V -0.242 ± 0.13, D -0.448 ± 0.24, H -0.528 ± 0.17, L -0.079 ± 0.097, E 0.024 ± 0.11, M -0.312 ± 0.16, C -0.199 ± 0.22, G -0.357 ± 0.091
D30: Q -0.073 ± 0.077, S -0.166 ± 0.087, H 0.045 ± 0.11, W -1.12 ± 0.24, V -0.657 ± 0.12, C -0.332 ± 0.15, R -0.036 ± 0.049, K 0.06 ± 0.11, E -0.03 ± 0.089, P -1.08 ± 0.24, Y -0.84 ± 0.21, N -0.401 ± 0.18, M -0.814 ± 0.16, G 0.122 ± 0.055, A -0.106 ± 0.072, L -0.615 ± 0.081
S22: L -0.057 ± 0.072, Y -0.911 ± 0.25, I 0.565 ± 0.49, C -0.017 ± 0.13, G -0.5 ± 0.075, P -0.621 ± 0.059, V 0.1 ± 0.069, Q -0.796 ± 0.15, R -1.05 ± 0.13, N -0.71 ± 0.46, D -0.386 ± 0.15, A 0.066 ± 0.051, F -0.945 ± 0.39
E35: W -0.252 ± 0.12, I -1.12 ± 0.47, H 0.055 ± 0.17, K 0.024 ± 0.089, T -0.118 ± 0.12, P -0.304 ± 0.096, Y -0.514 ± 0.21, N -0.521 ± 0.17, F -0.693 ± 0.19, M -0.703 ± 0.11, A -0.223 ± 0.085, G -0.256 ± 0.07, D -0.142 ± 0.14, R -0.043 ± 0.073, Q -0.233 ± 0.1, V -0.408 ± 0.097
M33: P -0.039 ± 0.054, L 0.059 ± 0.061, W -0.646 ± 0.094, A 0.199 ± 0.071, F -0.555 ± 0.15, Y -0.439 ± 0.23, T 0.247 ± 0.095, N -0.132 ± 0.36, K -0.088 ± 0.17, R 0.141 ± 0.053, Q 0.145 ± 0.11, E 0.067 ± 0.11, I -0.075 ± 0.12, S 0.195 ± 0.073, C 0.115 ± 0.097
R29: L 0.01 ± 0.07, G -0.238 ± 0.062, N -0.044 ± 0.21, S -0.297 ± 0.07, H -0.345 ± 0.17, K 0.002 ± 0.17, Q -0.059 ± 0.091, V -0.66 ± 0.14, C -0.403 ± 0.22, E -0.152 ± 0.12, P -0.433 ± 0.079, W -0.575 ± 0.16, M -0.076 ± 0.1, F 0.192 ± 0.27, Y -0.321 ± 0.14, I -0.88 ± 0.22, T -0.438 ± 0.11
V40: Y -0.438 ± 0.48, F -0.436 ± 0.18, R -0.836 ± 0.082, S -0.603 ± 0.079, P -0.732 ± 0.11, H 0.095 ± 0.37, W -1.04 ± 0.23, I 0.146 ± 0.19, T -0.997 ± 0.2, D -0.754 ± 0.23, A -0.528 ± 0.085, L -0.701 ± 0.1, N -0.466 ± 0.38, G -0.715 ± 0.081, M -0.815 ± 0.22, E -0.682 ± 0.13, C -0.302 ± 0.11
L23: T -0.368 ± 0.12, M -0.274 ± 0.2, Q -0.424 ± 0.14, H -0.174 ± 0.13, I -0.918 ± 0.49, E -0.445 ± 0.21, K -0.559 ± 0.3, N -0.282 ± 0.23, R -0.695 ± 0.079, G -0.67 ± 0.11, S -0.616 ± 0.12, F -0.764 ± 0.24, A -0.397 ± 0.11, V -0.509 ± 0.11, W -0.911 ± 0.3
L31: D -0.456 ± 0.2, I -0.973 ± 0.45, P -0.588 ± 0.063, S -0.608 ± 0.048, K -0.574 ± 0.2, W -0.949 ± 0.16, G -0.798 ± 0.087, F -0.74 ± 0.18, M -0.204 ± 0.13, R -0.732 ± 0.087, A -0.615 ± 0.089, V -0.588 ± 0.13, N -0.782 ± 0.35, Y -0.601 ± 0.24, H -0.448 ± 0.39
Y37: K -0.412 ± 0.19, N -0.401 ± 0.14, H -0.568 ± 0.23, L -0.186 ± 0.068, Q -0.547 ± 0.11, S -0.518 ± 0.045, C -0.547 ± 0.21, P -0.614 ± 0.084, A -0.084 ± 0.067, D -0.471 ± 0.17, G -0.519 ± 0.06
